Our source for the peptide concentration values is patent US20030091983A1.

For this test, the target named is synthetic HA 11 A-beta (1-40) peptide (human). Put plainly: sandwich ELISA, anti-HA 11 capture, detection with position 1 or position 40 antibodies. A general note: In an ELISA, binding on a coated surface is turned into a signal by an enzyme label.

For mAB anti-HA 11 (BABCO) (antibody), the peptide concentration at which the ELISA signal approached saturation is 10 ng/mL.
